Measured values published in patent US20050260730A1 (published 2005).
Blank lines part the entries; values can stand above or below the binder they belong to. Non-standard residues stand in square brackets, D forms with d. Phe(4-F) = N[C@@H](Cc1ccc(F)cc1)C(=O)O

Molecular target: CDK2/cyclin A complex (human, UniProt P24941 1-298; P20248 173-432)
Test: cell-based or functional assay

- CDK2/cyclin A kinase activity IC50: 50 µM
B1: H-Arg-Arg-Leu-(p-F-Phe)-NH2 (peptide)
peptide: H-RRL[Phe(4-F)]-NH2
SMILES: CC(C)C[C@H](NC(=O)[C@H](CCCNC(=N)N)NC(=O)[C@@H](N)CCCNC(=N)N)C(=O)N[C@@H](Cc1ccc(F)cc1)C(N)=O

- CDK2/cyclin A kinase activity IC50: > 50 µM
Binder: Ac-RRLNF-NH2 [Ac-Arg-Arg-Leu-Asn-Phe-NH2]
